# Assay results from publication PMC7343212, “Lactoferrin-Hexon Interactions Mediate CAR-Independent Adenovirus Infection of Human Respiratory Cells” (Journal of Virology, 2020).
# B1: bovine lactoferrin (protein, UniProt P24627 20-708, looked up)
# Lactotransferrin: APRKNVRWCTISQPEWFKCRRWQWRMKKLGAPSITCVRRAFALECIRAIAEKKADAVTLDGGMVFEAGRDPYKLRPVAAEIYGTKESPQTHYYAVAVVKKGSNFQLDQLQGRKSCHTGLGRSAGWIIPMGILRPYLSWTESLEPLQGAVAKFFSASCVPCIDRQAYPNLCQLCKGEGENQCACSSREPYFGYSGAFKCLQDGAGDVAFVKETTVFENLPEKADRDQYELLCLNNSRAPVDAFKECHLAQVPSHAVVARSVDGKEDLIWKLLSKAQEKFGKNKSRSFQLFGSPPGQRDLLFKDSALGFLRIPSKVDSALYLGSRYLTTLKNLRETAEEVKARYTRVVWCAVGPEEQKKCQQWSQQSGQNVTCATASTTDDCIVLVLKGEADALNLDGGYIYTAGKCGLVPVLAENRKSSKHSSLDCVLRPTEGYLAVAVVKKANEGLTWNSLKDKKSCHTAVDRTAGWNIPMGLIVNQTGSCAFDEFFSQSCAPGADPKSRLCALCAGDDQGLDKCVPNSKEKYYGYTGAFRCLAEDVGDVAFVKNDTVWENTNGESTADWAKNLNREDFRLLCLDGTRKPVTEAQSCHLAVAPNHAVVSRSDRAAHVKQVLLHQQALFGKNGKNCPDKFCLFKSETKNLLFNDNTECLAKLGGRPTYEEYLGTEYVTAIANLKKCSTSPLLEACAFLTR
# notes: bovine lactoferrin from cow milk (Sigma)
# How the values were obtained:
# [1] = test system: A549 cells (HAdV-C5 virions); assay: 35S-labeled HAdV-C5 virion binding to A549 cells; format: cell-based, Human; settings: at this concentration (2 μM), Fig. 1C
# Experimental: A549 cells were detached using phosphate-buffered saline (PBS) plus 0.05% EDTA with slow rocking at 37°C. Once detached, the cells were centrifuged at 1,500 × g for 5 min, resuspended in growth medium to about 2 × 10^6 cells/ml, and allowed to recover at 37°C, slowly rocking to keep the cells in suspension. While recovering, the HAdV-Lfcin complex was set up. Lfcin (2 μM), or an equivalent volume of PBS, was mixed with ^35S-labeled HAdV (15,000 particles/cell) in medium and left on ice at 4°C for 60 min. After 60 min of recovery, the cells were counted, and 150,000 viable cells were added to each well of a 96-V-shaped-well plate and centrifuged for 5 min at 1,500 × g. Once pelleted, the cells were resuspended in the HAdV-Lfcin solution or in HAdV-PBS solution and incubated on ice for 60 min at 4°C. After 60 min, the cells were pelleted and washed once in medium and once in PBS before the addition of scintillation fluid and quantification using a Wallac 1450 Microbeta counter (Trilux).
# [2] = test system: human respiratory epithelial A549 cells (HAdV-C5_GFP); assay: HAdV-C5_GFP transduction of A549 cells; format: cell-based
# Source text: For all transduction experiments, GFP-expressing vectors were used. The HAdV_GFP vector was purchased from Vector Development Laboratory. All mutated HAdV-C5 vectors were generated in the laboratory of A. Plückthun at the University of Zürich using the AdEasy system (Agilent) to contain an internal ribosome entry site (IRES)-luciferase (Luc)-GFP cassette for detection of transduction. To investigate the role of integrins in transduction, HAdV-C5-IRES-GFP with an intact RGD loop in the penton base protein (-DMNDHAIRGDTFATRAE-) and HAdV-C5-ΔRGD-IRES-GFP (-DMNDTSRAEEKRAE-), known not to bind integrins ([40]), were generated. To determine the binding site for hLF/hLfcin on the hexon protein, hexon-mutated vectors were produced with HVR-1 of HAdV-C5 ([43]) replaced with the corresponding sequence of HAdV-A31, as well as a HAdV-C5 vector mutated in HVR-7 ([44]).
# For experiments in A549 cells, 15,000 cells were seeded into a black 96-well plate with a transparent bottom. For experiments with CHO-K1 cells, 20,000 cells were seeded. After 24 h, HAdV-C5 vectors was complexed with 2 μM Lfcin or with ∼12 μM (1 mg/ml) of LF and, after 60 min, added to the cells on ice. The blocking of CAR using soluble HAdV-C5 fiber knob was performed using 10 μg/ml of recombinant knob. After another 60 min, unbound complex was washed away using Dulbecco’s modified Eagle’s medium (DMEM), followed by final addition of fresh medium. After 44 h, the cells were fixed using 4% paraformaldehyde (PFA) for 10 min, and GFP expression was imaged using a Trophos system (Luminy Biotech Entreprises). For the hexon chimeric viruses, transduction was instead quantified by measuring the luciferase activity at 44 h postinfection using a Pierce luciferase glow assay kit.
molecule,measurement,setting,value
B1,effect on HAdV-C5 binding to A549 cells (in words),[1],no or little effect
same,effect of LF on HAdV-C5_GFP transduction of A549 cells (in words),"[2]; LF 1 mg/ml preincubated with HAdV-C5_GFP, GFP imaging after 44 h (Fig. 1A)",Neither bLF nor rhLF affected HAdV-C5_GFP transduction
same,effect on HAdV-C5 transduction of A549 cells (in words),"[2]; at this concentration (2 μM), Fig. 1D",no or little effect
